{"source": "the supplement of paper PMC6755084", "parents": {"B1": {"name": "minF1; the commonest letter at each place (parent)", "chain": "GAGACCGCAACTGAAAAGTTGTTATCAGAAATGGATGGGTTGAATTTCTGCACGTAGAAGCAAAAGGC"}}, "data": [{"variants_of": "B1", "test": "fraction ligated after 30 min (ligated reads / total reads); higher = more ligase activity", "details": "with F1*subA RNA substrate (template-directed ligation), 42 °C", "method_in_brief": "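Oligo-pool templates of minimized ligase ribozyme variants were PCR-amplified, T7-transcribed and gel-purified. Ligated and unligated RNAs were gel-separated, reverse transcribed with barcoded primers, and MiSeq-sequenced; core bases were filtered at quality ≥30. Fraction ligated per variant was ligated reads over total reads.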", "values": [{"variant": "G33A A43T", "fraction ligated": 0.0914}, {"variant": "G33A A43C", "fraction ligated": 0.0816}, {"variant": "G33A A43G", "fraction ligated": 0.0533}, {"variant": "G33A G34T", "fraction ligated": 0.00656}, {"variant": "G33A G34A", "fraction ligated": 0.334}, {"variant": "G33A G34C", "fraction ligated": 0.00342}, {"variant": "T36C A44G", "fraction ligated": 0.00651}, {"variant": "T36C A44C", "fraction ligated": 0.00404}, {"variant": "T36C A44T", "fraction ligated": 0.0101}, {"variant": "G33C G42A", "fraction ligated": 0.132}, {"variant": "G33C G42T", "fraction ligated": 0.0409}, {"variant": "G33C G42C", "fraction ligated": 0.011}, {"variant": "G34T A43T", "fraction ligated": 0.00646}, {"variant": "G34T A43G", "fraction ligated": 0.0028}, {"variant": "G34T A43C", "fraction ligated": 0.00412}, {"variant": "G33T A43C", "fraction ligated": 0.0254}, {"variant": "G33T A43G", "fraction ligated": 0.0169}, {"variant": "G33T A43T", "fraction ligated": 0.0265}, {"variant": "T36G G42A", "fraction ligated": 0.00463}, {"variant": "T36G G42T", "fraction ligated": 0.000662}, {"variant": "T36G G42C", "fraction ligated": 0.00216}, {"variant": "G33C A44C", "fraction ligated": 0.383}, {"variant": "G33C A44T", "fraction ligated": 0.598}, {"variant": "G33C A44G", "fraction ligated": 0.497}, {"variant": "A35G A44G", "fraction ligated": 0.0773}, {"variant": "A35G A44C", "fraction ligated": 0.0421}, {"variant": "A35G A44T", "fraction ligated": 0.105}, {"variant": "G34A T36G", "fraction ligated": 0.0395}, {"variant": "G34A T36A", "fraction ligated": 0.0315}, {"variant": "G34A T36C", "fraction ligated": 0.0256}, {"variant": "A35T T36G", "fraction ligated": 0.00748}, {"variant": "A35T T36A", "fraction ligated": 0.0108}, {"variant": "A35T T36C", "fraction ligated": 0.00257}, {"variant": "G33A T36A", "fraction ligated": 0.0257}, {"variant": "G33A T36G", "fraction ligated": 0.0572}, {"variant": "G33A T36C", "fraction ligated": 0.0229}, {"variant": "T36G A44G", "fraction ligated": 0.00979}, {"variant": "T36G A44T", "fraction ligated": 0.0156}, {"variant": "T36G A44C", "fraction ligated": 0.00345}, {"variant": "G34T G42A", "fraction ligated": 0.00242}, {"variant": "G34T G42C", "fraction ligated": 0.00101}, {"variant": "G34T G42T", "fraction ligated": 0.00241}, {"variant": "A31T G34C", "fraction ligated": 0.00659}, {"variant": "A31T G34T", "fraction ligated": 0.0067}, {"variant": "A31T G34A", "fraction ligated": 0.071}, {"variant": "T36C A43T", "fraction ligated": 0.00367}, {"variant": "T36C A43C", "fraction ligated": 0.00423}, {"variant": "T36C A43G", "fraction ligated": 0.00496}, {"variant": "A35T G37C", "fraction ligated": 0.00461}, {"variant": "A35T G37A", "fraction ligated": 0.00299}, {"variant": "A35T G37T", "fraction ligated": 0.00238}, {"variant": "A31T A44C", "fraction ligated": 0.745}, {"variant": "A31T A44G", "fraction ligated": 0.82}, {"variant": "A31T A44T", "fraction ligated": 0.814}, {"variant": "T36G A43C", "fraction ligated": 0.00461}, {"variant": "T36G A43G", "fraction ligated": 0.00457}, {"variant": "T36G A43T", "fraction ligated": 0.00809}, {"variant": "A35G G37A", "fraction ligated": 0.00295}, {"variant": "A35G G37T", "fraction ligated": 0.00458}, {"variant": "A35G G37C", "fraction ligated": 0.0017}, {"variant": "G33C G34A", "fraction ligated": 0.18}, {"variant": "G33C G34C", "fraction ligated": 0.00483}, {"variant": "G33C G34T", "fraction ligated": 0.00568}, {"variant": "G33T A44G", "fraction ligated": 0.249}, {"variant": "G33T A44T", "fraction ligated": 0.299}, {"variant": "G33T A44C", "fraction ligated": 0.149}, {"variant": "T32G G42A", "fraction ligated": 0.00352}, {"variant": "T32G G42C", "fraction ligated": 0.00582}, {"variant": "T32G G42T", "fraction ligated": 0.00243}, {"variant": "T32G", "fraction ligated": 0.02}, {"variant": "T32C", "fraction ligated": 0.0302}, {"variant": "T32A", "fraction ligated": 0.0612}, {"variant": "A31T A43G", "fraction ligated": 0.157}, {"variant": "A31T A43C", "fraction ligated": 0.157}, {"variant": "A31T A43T", "fraction ligated": 0.215}, {"variant": "A31G G33T", "fraction ligated": 0.567}, {"variant": "T32A G33A", "fraction ligated": 0.032}, {"variant": "T32A G33T", "fraction ligated": 0.0384}, {"variant": "T32A G33C", "fraction ligated": 0.0102}, {"variant": "G34T T36C", "fraction ligated": 0.00276}, {"variant": "G34T T36G", "fraction ligated": 0.00275}, {"variant": "G34T T36A", "fraction ligated": 0.00722}, {"variant": "G34A A35T", "fraction ligated": 0.0147}, {"variant": "G34A A35G", "fraction ligated": 0.00813}, {"variant": "G34A A35C", "fraction ligated": 0.00719}, {"variant": "A31T G37C", "fraction ligated": 0.00621}, {"variant": "A31T G37A", "fraction ligated": 0.00615}, {"variant": "A31T G37T", "fraction ligated": 0.0157}, {"variant": "T36G G37T", "fraction ligated": 0.00976}, {"variant": "T36G G37A", "fraction ligated": 0.00776}, {"variant": "T36G G37C", "fraction ligated": 0.0044}, {"variant": "T32C G33A", "fraction ligated": 0.0169}, {"variant": "T32C G33T", "fraction ligated": 0.0247}, {"variant": "T32C G33C", "fraction ligated": 0.0121}, {"variant": "G33C T36G", "fraction ligated": 0.0305}, {"variant": "G33C T36A", "fraction ligated": 0.0174}, {"variant": "G33C T36C", "fraction ligated": 0.00989}, {"variant": "A35C A43T", "fraction ligated": 0.00614}, {"variant": "A35C A43C", "fraction ligated": 0.00377}, {"variant": "A35C A43G", "fraction ligated": 0.00754}, {"variant": "T32G G33C", "fraction ligated": 0.00893}, {"variant": "T32G G33A", "fraction ligated": 0.0116}, {"variant": "T32G G33T", "fraction ligated": 0.0125}, {"variant": "G33A G37C", "fraction ligated": 0.00669}, {"variant": "G33A G37T", "fraction ligated": 0.0175}, {"variant": "G33A G37A", "fraction ligated": 0.00769}, {"variant": "A31G G37C", "fraction ligated": 0.00462}, {"variant": "A31G G37T", "fraction ligated": 0.0111}, {"variant": "A31G G37A", "fraction ligated": 0.00669}, {"variant": "A35C G42A", "fraction ligated": 0.00288}, {"variant": "A35C G42C", "fraction ligated": 0.00254}, {"variant": "A35C G42T", "fraction ligated": 0.00281}, {"variant": "G37A A44C", "fraction ligated": 0.00309}, {"variant": "T32C A35G", "fraction ligated": 0.00362}, {"variant": "T32C A35T", "fraction ligated": 0.0031}, {"variant": "T32C A35C", "fraction ligated": 0.00582}, {"variant": "T32C G42T", "fraction ligated": 0.0036}, {"variant": "T32C G42C", "fraction ligated": 0.00351}, {"variant": "T32C G42A", "fraction ligated": 0.00418}, {"variant": "G34A A43G", "fraction ligated": 0.00716}, {"variant": "G34A A43T", "fraction ligated": 0.00502}, {"variant": "G34A A43C", "fraction ligated": 0.00464}, {"variant": "T32G A43C", "fraction ligated": 0.00832}, {"variant": "T32G A43T", "fraction ligated": 0.0529}, {"variant": "T32G A43G", "fraction ligated": 0.196}, {"variant": "T36C G42C", "fraction ligated": 0.00306}, {"variant": "T36C G42T", "fraction ligated": 0.00209}, {"variant": "T36C G42A", "fraction ligated": 0.00494}, {"variant": "G34C T36A", "fraction ligated": 0.00257}, {"variant": "G34C T36G", "fraction ligated": 0.00561}, {"variant": "G34C T36C", "fraction ligated": 0.00419}, {"variant": "G37A A43T", "fraction ligated": 0.00461}, {"variant": "G37A A43C", "fraction ligated": 0.00236}, {"variant": "G37A A43G", "fraction ligated": 0.00388}, {"variant": "A35T A44C", "fraction ligated": 0.00563}, {"variant": "A35T A44G", "fraction ligated": 0.0054}, {"variant": "A35T A44T", "fraction ligated": 0.00912}, {"variant": "T36A G42A", "fraction ligated": 0.00342}, {"variant": "T36A G42C", "fraction ligated": 0.0064}, {"variant": "T36A G42T", "fraction ligated": 0.00416}, {"variant": "T32G G37T", "fraction ligated": 0.00459}, {"variant": "T32G G37A", "fraction ligated": 0.00205}, {"variant": "T32G G37C", "fraction ligated": 0.0035}, {"variant": "G33C", "fraction ligated": 0.804}, {"variant": "G33T", "fraction ligated": 0.605}, {"variant": "G33A", "fraction ligated": 0.817}, {"variant": "T32A G34T", "fraction ligated": 0.00436}, {"variant": "T32A G34C", "fraction ligated": 0.0031}, {"variant": "T32A G34A", "fraction ligated": 0.00575}, {"variant": "A35G T36A", "fraction ligated": 0.00856}, {"variant": "A35G T36G", "fraction ligated": 0.00747}, {"variant": "A35G T36C", "fraction ligated": 0.00252}, {"variant": "T32A G42T", "fraction ligated": 0.00743}, {"variant": "T32A G42A", "fraction ligated": 0.00239}, {"variant": "T32A G42C", "fraction ligated": 0.00255}, {"variant": "G33A A44G", "fraction ligated": 0.576}, {"variant": "G33A A44C", "fraction ligated": 0.479}, {"variant": "G33A A44T", "fraction ligated": 0.553}, {"variant": "A31T T32A", "fraction ligated": 0.0898}, {"variant": "A31T T32C", "fraction ligated": 0.0483}, {"variant": "A31T T32G", "fraction ligated": 0.0242}, {"variant": "T32A G37T", "fraction ligated": 0.00279}, {"variant": "T32A G37C", "fraction ligated": 0.00322}, {"variant": "T32A G37A", "fraction ligated": 0.000603}, {"variant": "T36C G37T", "fraction ligated": 0.00876}, {"variant": "T36C G37C", "fraction ligated": 0.0038}, {"variant": "T36C G37A", "fraction ligated": 0.00566}]}]}
